Numbering of substitutions follows the chain as printed.
Legend:
WT mTNFα [1] = target: T1, WT mTNFα (Mus musculus, UniProt P06804); format: in vivo, mice
T1 construct: ELISAs were measured against WT mTNFα aa 1-156; His6 tag followed by factor Xa cleavage site (N, cleaved yes); made in house; host or cells: E. coli BL21(DE3)
T1 sequence (P06804 80-235): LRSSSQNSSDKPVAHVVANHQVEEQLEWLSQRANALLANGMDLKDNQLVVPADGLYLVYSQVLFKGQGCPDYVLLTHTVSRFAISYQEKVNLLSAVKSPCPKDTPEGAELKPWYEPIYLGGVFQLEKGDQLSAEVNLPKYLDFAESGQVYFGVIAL
Description: (§1) The plates were washed with PBST between incubations.
(§2) 30 μl of 0.5 μg/ml protein was used to coat the wells of Maxisorp 384-well plates (Nunc, Rochester, N.Y.) overnight at 4° C. After washing with PBS+0.05% Tween 20 (PBST), the coated plates were blocked with 80 μl of 1% BSA in PBS, and washed again with PBST. The plates were sequentially incubated with 20 μl of primary antibody or serum diluted in 1% BSA in PBS, 20 μl of HRP-conjugated goat anti-mouse IgG or anti-mouse IgM (Jackson ImmunoResearch Laboratories, West Grove, Pa.), and 20 μl of TMB substrate (KPL, Gaithersburg, Md.), and read at an absorbance of 650 nm. Between incubations, the plates were washed at least six times with PBST.

[2] = system: CD4+ T cells from immunized mice; assay: T cell proliferation assay; format: cell-based; settings: Bcl-2 mice, stimulated in vitro with pNO2Phe^86 mTNFα
Description: For mice immunized without adjuvant, the RIMMS protocol involved 8 injections (5 μg protein/injection) over a period of 17 days. For mice immunized with adjuvant, CFA was used for the first injection and IFA for the remaining 7 injections. […] To perform the T-cell proliferation assays, CD4^+ T cells from immunized mice were isolated from lymph nodes by magnetic depletion with MACS beads (Miltenyi Biotec). T cells were then placed into culture with irradiated splenocytes from naïve Bcl-2 mice and increasing amounts of antigen. The cultures were incubated for 48 h and then pulsed with [^3H]thymidine overnight. The culture plates were harvested onto filter mats and radioactivity was quantified with a TopCount scintillation counter (PerkinElmer).
Isolation of CD4^+ T cells from the lymph nodes of immunized C57BL/6 mice was carried out by magnetic depletion with MACS beads (Miltenyi Biotec, Auburn, Calif.). T cells were then placed into culture with irradiated splenocytes from naïve C57BL/6 mice and increasing amounts of antigen. Following incubation for 48 h, the cultures were incubated with ^3H-thymidine overnight. After harvesting the culture plates onto filter mats, radioactivity was quantified with a TopCount scintillation counter (PerkinElmer, Boston, Mass.).

WT mTNFα [3] = format: in vivo, mice; settings: C57BL/6 mice, 8 injections of 5 μg over 17 days, CFA/IFA, serum diluted 1/1000
Description: as §1, §2

[4] = system: NFκB pathway in HEK293 cells stably expressing NFκB-Luc; settings: NF-κB-luciferase activity analysis of mTNFα variants
Description: The biological activities of the proteins were assayed by measuring the mTNFα-induced activation of NFκB pathway in a NFκB-luciferase reporter cell line. […] The stable cells were dissociated with trypsin, resuspended in DMEM containing 10% FBS at 5×10^5 cells/ml, and plated at 20 μl/well in 384-well white plate (Greiner, Longwood, Fla.). After 2 hours incubation at 5% CO2 in a 37° C. tissue culture incubator, 20 μl of TNFα was added to the cells. The cells were continuously incubated for 24 hours. Luciferase activities were measured by addition of 20 μl Bright-Glo (Promega, Madison, Wis.), and the plate was read using a luminescence plate reader.
The activity of pNO2Phe mTNFα mutants was determined by an NFκB-luciferase reporter gene assay using HEK293 cells stably expressing NFκB-luciferase as described previously (Grunewald, J. et al. (2008) “Immunochemical termination of self-tolerance.” Proc Natl Acad Sci USA 105: 11276-11280).

[5] = system: C57BL/6 mice, lipopolysaccharide (LPS) challenge; assay: LPS challenge in TNFα-dependent severe endotoxemia mouse model; format: in vivo

B1: Phe^86 mTNFα: Tyr^86 Phe mutant of mTNFα, control without NO2 group (protein)
chain: T1 sequence (P06804 80-235) with Y86F
WT mTNFα [1]; Bcl2 mice, presence or absence of CFA/IFA
  anti-TNFα titers: no significant anti-TNFα titers
[2]
  CD4+ T cells specific for pNO2Phe^86 mTNFα elicited by immunization: not when mice were immunized

B2: WT mTNFα: wild-type murine tumor necrosis factor-α expressed in E. coli (protein)
chain: MSTESMIRDVELAEEALPQKMGGFQNSRRCLCLSLFSFLLVAGATTLFCLLNFGVIGPQRDEKFPNGLPLISSMAQTLTLRSSSQNSSDKPVAHVVANHQVEEQLEWLSQRANALLANGMDLKDNQLVVPADGLYLVYSQVLFKGQGCPDYVLLTHTVSRFAISYQEKVNLLSAVKSPCPKDTPEGAELKPWYEPIYLGGVFQLEKGDQLSAEVNLPKYLDFAESGQVYFGVIAL
WT mTNFα [1]; one injection of pNO2Phe^86 mTNFα in CFA, then 7 injections in IFA
  sustaining titers of cross-reactive anti-mTNFα antibodies: cannot sustain significant titers
WT mTNFα [3]
  serum IgG titers against pNO2Phe^86 mTNFα and WT mTNFα: insignificant serum IgG titers
[4]
  EC50: 0.216 nM
[5]; active immunization, C57BL/6 mice, LPS 8.5 mg/kg i.p.
  survival rate: 12.5%
[5]; passive: pooled serum (100 uL) or purified IgG (4 mg/kg) from immunized Bcl-2 mice, LPS 7.5 mg/kg
  survival rate: 16.7-25.0%
[2]
  CD4+ T cells specific for pNO2Phe^86 mTNFα elicited by immunization: not when mice were immunized
